From patent US20260242478A1 (published 2026)
Where no end group is shown, it is not given here.

Assays:
[1] = target: T1, Anti-CD28 Fab (SEQ ID NOs: 696, 697); assay: phage ELISA on plate-bound anti-CD28 Fab pre-incubated with CD28 antigen as competitor
T1 construct: In the phage ELISA the Fab was biotinylated and captured on neutravidin coated plates
T1 sequence (VH, as listed by the source, chain 1 of 2): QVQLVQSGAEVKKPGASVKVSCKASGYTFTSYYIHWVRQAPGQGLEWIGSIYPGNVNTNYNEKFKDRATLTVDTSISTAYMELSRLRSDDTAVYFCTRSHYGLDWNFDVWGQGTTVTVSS
T1 sequence (VL, as listed by the source, chain 2 of 2): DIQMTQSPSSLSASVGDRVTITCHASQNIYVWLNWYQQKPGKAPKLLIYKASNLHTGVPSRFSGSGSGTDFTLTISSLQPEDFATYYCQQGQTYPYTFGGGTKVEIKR
Method: (§1) Clonal phage were harvested as crude supematants and screened via standard ELISAs. […] Prior to the addition of clonal phage, wells were incubated with blocking buffer and CD28 antigen or blocking buffer alone. Without washing or aspirating, clonal phage supematants were then added to the wells and incubated for a short time. Wells were then washed followed by detection of bound phage using a horse radish conjugated anti-M13 antibody.

[2] = target: T1, Anti-CD28 Fab (SEQ ID NOs: 696, 697); assay: phage ELISA; clonal phage supernatant on biotinylated anti-CD28 Fab captured on neutravidin plate, anti-M13-HRP detection
Method: as §1

[3] = target: T2, Anti-CD28 Fab (SEQ ID NOs: 696, 697); assay: phage binding ELISA on captured anti-CD28 Fab, wells pre-incubated with CD28 antigen as competitor
T2 construct: In the phage ELISA the Fab was biotinylated and captured on neutravidin coated plates
T2 sequence (VH, as listed by the source, chain 1 of 2): as the sequence (VH, as listed by the source, chain 1 of 2) above
T2 sequence (VL, as listed by the source, chain 2 of 2): as the sequence (VL, as listed by the source, chain 2 of 2) above
Method: (§2) Clonal phage were harvested as crude supematants and screened via standard ELISAs. […] Prior to the addition of clonal phage, wells were incubated with blocking buffer and CD28 antigen or blocking buffer alone. Without washing or aspirating, clonal phage supematants were then added to the wells and incubated for a short time. Wells were then washed followed by detection of bound phage using a horse radish conjugated anti-M13 antibody. Clonal phage of interest were then sent for sequence analysis.

[4] = target: T2, Anti-CD28 Fab (SEQ ID NOs: 696, 697); assay: phage binding ELISA; biotinylated anti-CD28 Fab on neutravidin plate, bound phage detected with anti-M13-HRP;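 also: clonal phage tested as crude supernatants, given a short incubation in the Fab-captured wells before bound phage were read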
Method: as §2

PSMA Fab (006 PSMA Fab) [5] = target: T3, PSMA Fab (006 PSMA Fab); assay: phage ELISA; PSMA Fab on plate pre-incubated with PSMA antigen as competitor, anti-M13 HRP detection;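 also: crude clonal phage supernatants added to Fab-coated wells still holding PSMA antigen in blocking buffer, with bound phage as read-out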
T3 construct: In the phage ELISA the PSMA Fab was biotinylated and captured on neutravidin coated plates; also called Anti-PSMA Fab; anti-PSMA Fab
Method: (§3) Clonal phage were harvested as crude supernatants and screened via standard ELISAs. […] Prior to the addition of clonal phage. wells were incubated with blocking buffer and PSMA antigen or blocking buffer alone. Without washing or aspirating, clonal phage supernatants were then added to the wells and incubated for a short time. Wells were then washed followed by detection of bound phage using a horse radish conjugated anti-M13 antibody.

PSMA Fab (006 PSMA Fab) [6] = target: T3, PSMA Fab (006 PSMA Fab); assay: phage ELISA; biotinylated PSMA Fab on neutravidin plate, clonal phage supernatant, anti-M13 HRP detection;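 also: wells preincubated with PSMA antigen in blocking buffer or with blocking buffer only before clonal phage were added for a short incubation, then bound phage detected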
Method: as §3

Row | Binder | Anti-CD28 Fab signal in the presence of CD28 (phage binding ELISA) [1] | Anti-CD28 Fab signal (phage binding ELISA) [2] | Anti-CD28 Fab signal in the presence of CD28 (phage binding ELISA) [3] | Anti-CD28 Fab signal (phage binding ELISA) [4] | also measured
1 | LCAAGAHYPWPQCL [Phage-1384 peptide (SEQ ID NO: 1680)] | 0.07 | 2.15 |  |  | 
2 | TCAAGAAYPWPLCF [Phage-1377 peptide (SEQ ID NO: 1673)] | 0.11 | 2.18 |  |  | 
3 | TCSAGATWAWPSCF (Tested as clonal phage supernatant; not shown: fused to the pIII filament of the bacteriophage) [Phage-1440 (peptide-92 library clone, SEQ ID NO: 1736)] |  |  | 0.1 | 1.92 | 
4 | SCSAGASLQLSICL (Tested as clonal phage supernatant; not shown: fused to the pIII filament of the bacteriophage) [Phage-1439 (peptide-92 library clone, SEQ ID NO: 1735)] |  |  | 0.06 | 1.92 | 
5 | EVKWCTPYWMCIDT [Phage-2833 (Peptide-180 library clone)] |  |  |  |  | phage binding ELISA signal (Anti-PSMA Fab, PSMA antigen present) (PSMA Fab (006 PSMA Fab) [5]): 0.072; Phage binding ELISA signal, Anti-PSMA Fab (PSMA Fab (006 PSMA Fab) [6]): 0.443
6 | TCAAGAHWPWPTCF [Phage-1385 peptide (SEQ ID NO: 1681)] | 0.07 | 2.15 |  |  | 
7 | LCKPGVPNSWPTCL (Tested as clonal phage supernatant; not shown: fused to the pIII filament of the bacteriophage) [Phage-1431 (peptide-92 library clone, SEQ ID NO: 1727)] |  |  | 0.06 | 1.95 | 
8 | TCAAGATYAWPYCV [Phage-1376 peptide (SEQ ID NO: 1672)] | 0.09 | 2.21 |  |  | 
9 | EFKWCSPAQLCVNG [Phage-2832 (Peptide-180 library clone)] |  |  |  |  | phage binding ELISA signal (Anti-PSMA Fab, PSMA antigen present) (PSMA Fab (006 PSMA Fab) [5]): 0.0526; Phage binding ELISA signal, Anti-PSMA Fab (PSMA Fab (006 PSMA Fab) [6]): 0.447
10 | MCSAGAMYPWPLCL (Tested as clonal phage supernatant; not shown: fused to the pIII filament of the bacteriophage) [Phage-1435 (peptide-92 library clone, SEQ ID NO: 1731)] |  |  | 0.07 | 1.93 | 
11 | TCSAGATWPWPICL (Tested as clonal phage supernatant; not shown: fused to the pIII filament of the bacteriophage) [Phage-1444 (peptide-92 library clone, SEQ ID NO: 1740)] |  |  | 0.08 | 1.89 | 
12 | TCAAGANWEWPWCF [Phage-1375 peptide (SEQ ID NO: 1671)] | 0.08 | 2.22 |  |  | 
13 | MCSAGANWPWPLCF [Phage-1379 peptide (SEQ ID NO: 1675)] | 0.07 | 2.18 |  |  | 
14 | TCSAGAHYPWPDCI (Tested as clonal phage supernatant; not shown: fused to the pIII filament of the bacteriophage) [Phage-1432 (peptide-92 library clone, SEQ ID NO: 1728)] |  |  | 0.07 | 1.95 | 
15 | TCAAGASYPWPACL (Tested as clonal phage supernatant; not shown: fused to the pIII filament of the bacteriophage) [Phage-1445 (peptide-92 library clone, SEQ ID NO: 1741)] |  |  | 0.09 | 1.89 | 
16 | TCSAGATYIWPMCF (Tested as clonal phage supernatant; not shown: fused to the pIII filament of the bacteriophage) [Phage-1442 (peptide-92 library clone, SEQ ID NO: 1738)] |  |  | 0.08 | 1.9 | 
17 | LCNAGAMYKWPTCL (Tested as clonal phage supernatant; not shown: fused to the pIII filament of the bacteriophage) [Phage-1434 (peptide-92 library clone, SEQ ID NO: 1730)] |  |  | 0.06 | 1.94 | 

Row | Binder | Anti-CD28 Fab signal in the presence of CD28 (phage binding ELISA) [1] | Anti-CD28 Fab signal (phage binding ELISA) [2] | Anti-CD28 Fab signal in the presence of CD28 (phage binding ELISA) [3] | Anti-CD28 Fab signal (phage binding ELISA) [4] | also measured
18 | AFPSCIPEWMCSGM [Phage-2831 (Peptide-180 library clone)] |  |  |  |  | phage binding ELISA signal (Anti-PSMA Fab, PSMA antigen present) (PSMA Fab (006 PSMA Fab) [5]): 0.149; Phage binding ELISA signal, Anti-PSMA Fab (PSMA Fab (006 PSMA Fab) [6]): 0.45
19 | NCSAGATYPWPLCL [Phage-1381 peptide (SEQ ID NO: 1677)] | 0.07 | 2.17 |  |  | 
20 | NCSAGAQWPWPICL [Phage-1383 peptide (SEQ ID NO: 1679)] | 0.08 | 2.15 |  |  | 
21 | NTNWCTPPWMCEGL [Phage-2834 (Peptide-180 library clone)] |  |  |  |  | phage binding ELISA signal (Anti-PSMA Fab, PSMA antigen present) (PSMA Fab (006 PSMA Fab) [5]): 0.0664; Phage binding ELISA signal, Anti-PSMA Fab (PSMA Fab (006 PSMA Fab) [6]): 0.442
22 | TCSAGATYTWPWCF [Phage-1388 peptide (SEQ ID NO: 1684)] | 0.07 | 2.14 |  |  | 
23 | PCAAGAMWPWPVCL (Tested as clonal phage supernatant; not shown: fused to the pIII filament of the bacteriophage) [Phage-1433 (peptide-92 library clone, SEQ ID NO: 1729)] |  |  | 0.06 | 1.95 | 
24 | RCSAGFHYPLSLCL [Phage-1380 peptide (SEQ ID NO: 1676)] | 0.06 | 2.18 |  |  | 
25 | TCRAGATYNWPFCL (Tested as clonal phage supernatant; not shown: fused to the pIII filament of the bacteriophage) [Phage-1443 (peptide-92 library clone, SEQ ID NO: 1739)] |  |  | 0.07 | 1.9 | 
26 | TCSAGATYTWSKCF [Phage-1386 peptide (SEQ ID NO: 1682)] | 0.06 | 2.15 |  |  | 
27 | SCAAGAMYSWPTCL [Phage-1382 peptide (SEQ ID NO: 1678)] | 0.08 | 2.16 |  |  | 
28 | TCSAGAGYPWPLCY (Tested as clonal phage supernatant; not shown: fused to the pIII filament of the bacteriophage) [Phage-1438 (peptide-92 library clone, SEQ ID NO: 1734)] |  |  | 0.08 | 1.92 | 
29 | MCAAGFHYPWPACL (cysteine pairing not given here; also: fused to phage pIII protein) [Phage-1374 peptide (SEQ ID NO: 1670)] | 0.1 | 2.23 |  |  | 
30 | TCSAGAHYVWPMCF (Tested as clonal phage supernatant; not shown: fused to the pIII filament of the bacteriophage) [Phage-1441 (peptide-92 library clone, SEQ ID NO: 1737)] |  |  | 0.17 | 1.91 | 
31 | TCSAGAMWTWPYCF (Tested as clonal phage supernatant; not shown: fused to the pIII filament of the bacteriophage) [Phage-1436 (peptide-92 library clone, SEQ ID NO: 1732)] |  |  | 0.08 | 1.93 | 
32 | LCNAGATYSWPTCL [Phage-1387 peptide (SEQ ID NO: 1683)] | 0.06 | 2.14 |  |  | 
33 | TCAAGAYWTWPACF (Tested as clonal phage supernatant; not shown: fused to the pIII filament of the bacteriophage) [Phage-1437 (peptide-92 library clone, SEQ ID NO: 1733)] |  |  | 0.09 | 1.93 | 
34 | TCSAGASNKLSLCL [Phage-1378 peptide (SEQ ID NO: 1674)] | 0.06 | 2.18 |  |  | 
